Substitutions are numbered along the chain they refer to.
B1: P2A7.3E11 (antibody, IgG2a, V domains shown)
VH: QVQLQQSGPELVKPGASVKMSCKASGNTFTDYVINWVKQRTGQGLEWIGEIYPGNENTYYNEKFKGKATLTADKSSNTAYMQLSSLTSEDSAVYFCARGIYYYGSRTRTMDYWGQGTSVTVSS
VL: EVVLTQSPTAMAASPGEKITITCSASSTLSSNYLHWYQQKPGFSPKLLIYRTSNLASGVPGRFSGSGSGTSYSLTIGTMEAEDVATYYCQQGSSIPLTFGAGTKLELK
notes: Murine hybridoma antibody, IgG2a/k; also called muP2A7
B2: M14-G11.G4.P (antibody, human IgG4, V domains shown)
VH: EVQLLESGGGLVQPGGSLRLSCAASGFTFSNYPMYWVRQAPGKGLEWVSRISSSGGRTVYADSVKGRFTISRDNSKNTLYLQMNSLRAEDTAVYYCARDRWSRSAAEYGLGGYWGQGTLVTVSS
VL: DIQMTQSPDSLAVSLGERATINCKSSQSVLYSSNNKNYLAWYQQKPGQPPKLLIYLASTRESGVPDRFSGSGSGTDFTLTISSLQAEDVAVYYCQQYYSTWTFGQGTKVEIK
notes: Full-length human IgG4.P, kappa; also called M14.G11.P; G4 version of M14-G11
B3: M14-G11.G4.P.agly (antibody, human IgG4 S228P, kappa, V domains shown)
VH: B2 VH
VL: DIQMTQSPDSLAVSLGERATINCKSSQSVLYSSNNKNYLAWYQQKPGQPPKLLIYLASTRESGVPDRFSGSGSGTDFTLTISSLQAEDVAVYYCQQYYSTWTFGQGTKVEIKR
notes: Full-length human aglycosylated IgG4.P, kappa; Places that say only 'M14-G11 antibody' were assigned to this version; also called M14-G11_Ab; Biotin-G11
B4: M12-G04.G4.P (antibody, human IgG4, V domains shown)
VH: EVQLLESGGGLVQPGGSLRLSCAASGFTFSKYTMHWVRQAPGKGLEWVSSIVSSGGWTDYADSVKGRFTISRDNSKNTLYLQMNSLRAEDTAVYYCARDRSIAAAGTGWSVSFVDWFDPWGQGTLVTVSS
VL: DIQMTQSPLSLSASVGDRVTITCRASQSINGYLNWYQQKPGKAPNLLIYATSSLQSGVPSRFSGSGSGTDFTLTISSLQPEDFATYYCQQSYSTPPYTFGQGTKLEIK
notes: Full-length human IgG4.P, kappa; also called G4 version of M12-G04
B5: M12-G04 Fab (Fab, V domains shown)
VH: B4 VH
VL: B4 VL
notes: Human phage Fab, kappa
B6: P1E2.3B12 (antibody, IgG2b, V domains shown)
VH: QVQLQQPGAELVKPGASVKLSCKASGYTFTSYWMHWVKQRPGQGLEWIGEINPTYGRSNYNEKFKSKATLTVDKSSSTAYMQLSSLTSEDSAVYYCARLVRLRYFDVWGAGTTVTVSS
VL: DIVMTQAAFSNPVTLGTSASISCRSSKSLLHSNGITYLYWYLQKPGQSPQLLIYQMSNLASGVPDRFSSSGSGTDFTLRISRVEAEDVGVYYCAQNLELPYTFGGGTKLEIK
notes: Murine hybridoma antibody, IgG2b/k; also called P1E2 (hybridoma)
B7: P1A2.2B11 (antibody, IgG2b, V domains shown)
VH: QIQLVQSGPELKKPGETVKISCKASGYTFTNHGMNWVKQAPGKGLKWMGWNTSTGEPTYADDFKGRFAFSLETSASTAFLQINNLKNEDTASYFCASPLYYMYGRYIDVWGAGTAVTVSS
VL: DIQMTQTTSSLSASLGDRVTISCRASQDISNYLNWYQQKPDGTIKLLIYYTSRLHSGVPSRFSGSGSGTDYSLTISNLEQEDFATYFCQQGKTLPWTFGGGTKLEIK
notes: Murine hybridoma antibody, IgG2b/k
B8: P1G10.2B8 (antibody, IgG1, V domains shown)
VH: QIQLVQSGPDLKKPGETVKISCKASGYTFTNHGMNWVKQAPGKDLKWMGWINTNTGEPTYADDFKGRFAFSLETSASTAYLQINNLKNEDTATYFCASPLYYRNGRYFDVWGAGTTVTVSS
VL: B7 VL with T43S, I44V, F83I
notes: Murine hybridoma antibody, IgG1/k

Tests used:
[1] = biological target: T1, human IGF-1R(1-902)-His10 (human, UniProt P08069 31-932); assay: protein ELISA
T1 construct: Cy5-labelled in tr-FRET; also called hIGF-1R-His10; IGF-1R-His

[2] = biological target: T2, human IGF-1R expressed on cells (human, UniProt P08069 31-1367); assay: binding to MCF-7 tumor cells
T2 construct: On MCF-7 tumor cells or on 3T3/CHO transfectants; precursor is processed into alpha and beta subunits; Signal peptide 1-30 left out as stated; also called wild type IGF-1R; IGF-1R 3T3

[3] = biological target: T3, Rhesus IGF-1R expressed on CHO cells (rhesus monkey, UniProt I2CWY3 31-1367); assay: flow cytometry and confocal microscopy, CHO transfectants
T3 construct: whole, on cells; also called Rhesus IGF-1R/CHO

[4] = biological target: T4, human IGF-1R(1-903)-Fc (human, UniProt P08069 31-933); assay: ELISA, plate coated with soluble IGF-1 receptor Fc fusion protein, detection with anti-human kappa-HRP
T4 construct: Made by Biogen Idec; Multimerises through IGF-1R and Fc; also called hIGF-1R-Fc; IGF-1R-Fc; not shown: C-terminal human IgG1-Fc tag
Protocol: The plate was washed with phosphate-buffered saline (PBS, Irvine Scientific, Cat#9240), pH 7.4 plus 0.025% Tween 20 in the Skan Washer 300 (Skatron Instruments), blocked with buffer containing 1% nonfat milk, 0.05% Tween 20 in PBS, pH 7.4, and then incubated at room temperature for 1 hour. After incubation plate was washed with PBS plus 0.025% Tween 20 in the Skan Washer 300. […] Following a one hour incubation at room temperature, plate was washed with PBS plus 0.025% Tween 20 in the Skan Washer 300. […] Plate incubated for 1 hour at room temperature was washed with PBS plus 0.025% Tween 20 in the Skan Washer 300. […] The absorbance was measured at 450 nm, background 540 nm for TMB using the Molecular Devices plate reader. Data was analyzed using the SOFTMAX PRO software package version 4.3 LS (Molecular Devices Corp.).

[5] = biological target: T2, human IGF-1R expressed on cells; assay: cell-based or functional assay
[6] = biological target: T5, murine IGF-1R expressed on cells (mouse, UniProt Q60751 31-1373); assay: binding to CHO transfectants
T5 construct: whole, on cells; also called mouse IGF-1R

[7] = biological target: T1, human IGF-1R(1-902)-His10; assay: SPR, antibody over captured IGF-1R-10His
Protocol: All surface plasmon resonance (SPR) experiments were performed on a Biacore 3000 set to 25° C. using HBS-EP (Biacore, Cat. No. BR-1001-88) as the running buffer. A biotin-labeled anti-HisTag antibody (biotin-PENTA-His, Qiagen Cat. No. 34440) was immobilized to saturation on a Biacore SA chip (Cat. No. BR-1000-32) surface by injection at 500 nM in HBS-EP buffer. […] Subsequent to IGF-1R injections, flow rates were increased to 20 μL/min. A second, 130 μL injection of anti-IGF-1R antibody or Fab was performed to investigate interactions with the receptor. Each antibody and Fab was serially diluted from 64 nM to 0.5 nM to obtain concentration dependent kinetic binding curves. Each injection series was regenerated using 3×10 μL injections of 10 mM Acetate, pH 4.0, at 20 μL/min. Each curve was double referenced using (1) data obtained from a streptavidin surface devoid of IGF-1R and (2) data from a primary injection of IGF-1R followed by a secondary injection of HBS-EP buffer. The concentration series for each antibody and Fab was fit to the 1:1 binding model provided within the BiaEvaluation software of the manufacturer.
The rates at which the antibodies accumulate on the IGF-1R coated surface when applied at various concentrations as well as the rates at which they dissociated during applications of pure buffer were investigated by fitting the data to a 1:1 binding model. Approximate kinetic rate constants and equilibrium dissociation constant were calculated (Table 14).

[8] = biological target: T6, human insulin receptor expressed in mammalian cells (UniProt P06213 28-1382, limits assumed); assay: immunoprecipitation from IR CHO lysate, western blot with mouse anti-human IR
T6 construct: whole, on cells; Cells were solubilised with Triton X-100 before immunoprecipitation; also called INSR; IR
Protocol: Recombinant IGF-1R and insulin receptor (IR) were independently expressed in mammalian cells (3T3 or CHO). […] Antibody/antigen complexes were released from the beads by acid treatment, applied to Tris-Glycine SDS-PAGE gels and blotted to nitrocellulose membranes. Detection was performed using mouse anti-human IR (FIG. 24A) or mouse anti-human IGF-1R (FIG. 24B) and goat α-mouse IgG.

[9] = biological target: T4, human IGF-1R(1-903)-Fc; assay: ELISA on hIGF-1R-Fc, competitor biotinylated M14-G11
[10] = biological target: T4, human IGF-1R(1-903)-Fc; assay: ELISA on hIGF-1R-Fc, competitor Zenon-labelled αIR3
[11] = biological target: T2, human IGF-1R expressed on cells; assay: flow cytometry, MCF-7 cells
Protocol: The ability of Fabs to bind to the wild type IGF-1R was determined by flowcytometry using MCF-7 tumor cell line.
MCF-7 cells (Human Breast Adenocarcinoma from NCI) were split 24 hours prior to the setup of the assay to obtain 70% confluent monolayer. Routinely, MCF-7 cell line was maintained within 20 passages. Cells were lifted with cell dissociation buffer (Gibco catalog #13151-014), counted, washed and adjusted to 1×10⁶ cells/ml and one ml of cells were then added to each tube (12×75 mm tube Falcon catalog# 352054). Cells were pelleted and supernatant removed by centrifugation at 1200 rpm for 5 min and 100 μl of diluted antibodies were then added to the cell pellet. Purified Fabs were tested at a starting concentration of either 210 or 60 μg/ml with 1:3 dilutions in FACS buffer, down to 0.001 μg/ml. FACS buffer used throughout the assay was PBS (without Ca++/Mg++) containing 1% BSA (Sigma catalog# A-7906; Sigma-Aldrich Corp. (St. Louis, Mo., USA)) and 0.1% Sodium Azide (Sigma catalog #S2002). […] Samples were allowed to incubate on ice for 1 hour and 15 minutes then were washed with 2 ml FACS buffer and centrifuged at 1200 rpm for 5 minutes at 4° C. The supernatant was aspirated and 100 μl of the secondary detection antibody was added to each corresponding tube in FACS buffer. Samples were then incubated for 30 minutes on ice, in the dark. Cells were washed as described above, then, re-suspended in […] FACS buffer per tube/sample.
Cells were stained for live cell determination with Propidium Iodide staining solution (PI for dead cell exclusion; BD Pharmingen catalog# 51-66211E or 556463; use at 1:500 final in FACS buffer). Samples were run on the FACSCalibur instrument (Becton Dickinson) with 10,000 live events collected per sample.

[12] = biological target: T7, human INSR(28-956)-His10 (human, UniProt P06213 28-956); assay: ELISA, plate coated with rh-INSR
T7 construct: range 28-956; Bought (R&D Systems 1544-IR); also called rh-INSR; soluble insulin receptor
Protocol: ELISA assays were performed to determine specific binding of the Fab fragment antibodies to soluble IGF-1R over the insulin receptor. […] Color development was stopped by addition of 4NH₂SO₄ and optical density is measured at 450 nm using a Molecular Devices plate reader and binding curves are generated.

T3 sequence (I2CWY3 entry or part of it): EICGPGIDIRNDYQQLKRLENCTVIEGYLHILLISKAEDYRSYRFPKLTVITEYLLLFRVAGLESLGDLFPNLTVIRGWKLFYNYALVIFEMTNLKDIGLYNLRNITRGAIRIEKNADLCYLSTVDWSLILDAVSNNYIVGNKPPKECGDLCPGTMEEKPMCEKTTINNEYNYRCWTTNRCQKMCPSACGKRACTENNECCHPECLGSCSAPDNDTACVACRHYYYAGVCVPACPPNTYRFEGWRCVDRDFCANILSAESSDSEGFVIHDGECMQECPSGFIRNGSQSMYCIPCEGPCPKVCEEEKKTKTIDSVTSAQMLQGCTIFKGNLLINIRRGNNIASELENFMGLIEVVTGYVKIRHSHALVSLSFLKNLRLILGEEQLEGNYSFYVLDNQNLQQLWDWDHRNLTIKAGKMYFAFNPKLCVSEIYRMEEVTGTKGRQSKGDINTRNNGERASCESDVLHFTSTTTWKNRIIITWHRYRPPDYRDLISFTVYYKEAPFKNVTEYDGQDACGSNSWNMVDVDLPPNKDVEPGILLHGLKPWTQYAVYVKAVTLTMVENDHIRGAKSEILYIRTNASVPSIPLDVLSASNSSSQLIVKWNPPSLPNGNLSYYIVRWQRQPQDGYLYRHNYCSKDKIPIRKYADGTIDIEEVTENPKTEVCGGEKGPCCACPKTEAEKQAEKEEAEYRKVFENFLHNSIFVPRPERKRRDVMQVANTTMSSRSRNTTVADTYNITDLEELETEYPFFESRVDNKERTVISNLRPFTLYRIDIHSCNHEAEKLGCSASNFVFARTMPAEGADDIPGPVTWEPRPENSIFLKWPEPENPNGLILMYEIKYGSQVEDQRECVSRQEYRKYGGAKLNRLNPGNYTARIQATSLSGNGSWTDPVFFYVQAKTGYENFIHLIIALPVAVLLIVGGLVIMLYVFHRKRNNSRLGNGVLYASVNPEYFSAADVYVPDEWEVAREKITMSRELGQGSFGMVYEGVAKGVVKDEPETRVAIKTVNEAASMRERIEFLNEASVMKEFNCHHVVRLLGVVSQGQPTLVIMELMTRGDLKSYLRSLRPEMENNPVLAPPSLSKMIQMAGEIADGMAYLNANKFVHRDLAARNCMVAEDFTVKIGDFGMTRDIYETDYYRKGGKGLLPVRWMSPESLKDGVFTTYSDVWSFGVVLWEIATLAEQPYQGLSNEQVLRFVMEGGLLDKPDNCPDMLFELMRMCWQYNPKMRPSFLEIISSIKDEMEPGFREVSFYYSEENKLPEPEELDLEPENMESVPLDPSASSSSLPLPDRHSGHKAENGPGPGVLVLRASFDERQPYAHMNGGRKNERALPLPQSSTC
T5 sequence (Q60751 31-1373): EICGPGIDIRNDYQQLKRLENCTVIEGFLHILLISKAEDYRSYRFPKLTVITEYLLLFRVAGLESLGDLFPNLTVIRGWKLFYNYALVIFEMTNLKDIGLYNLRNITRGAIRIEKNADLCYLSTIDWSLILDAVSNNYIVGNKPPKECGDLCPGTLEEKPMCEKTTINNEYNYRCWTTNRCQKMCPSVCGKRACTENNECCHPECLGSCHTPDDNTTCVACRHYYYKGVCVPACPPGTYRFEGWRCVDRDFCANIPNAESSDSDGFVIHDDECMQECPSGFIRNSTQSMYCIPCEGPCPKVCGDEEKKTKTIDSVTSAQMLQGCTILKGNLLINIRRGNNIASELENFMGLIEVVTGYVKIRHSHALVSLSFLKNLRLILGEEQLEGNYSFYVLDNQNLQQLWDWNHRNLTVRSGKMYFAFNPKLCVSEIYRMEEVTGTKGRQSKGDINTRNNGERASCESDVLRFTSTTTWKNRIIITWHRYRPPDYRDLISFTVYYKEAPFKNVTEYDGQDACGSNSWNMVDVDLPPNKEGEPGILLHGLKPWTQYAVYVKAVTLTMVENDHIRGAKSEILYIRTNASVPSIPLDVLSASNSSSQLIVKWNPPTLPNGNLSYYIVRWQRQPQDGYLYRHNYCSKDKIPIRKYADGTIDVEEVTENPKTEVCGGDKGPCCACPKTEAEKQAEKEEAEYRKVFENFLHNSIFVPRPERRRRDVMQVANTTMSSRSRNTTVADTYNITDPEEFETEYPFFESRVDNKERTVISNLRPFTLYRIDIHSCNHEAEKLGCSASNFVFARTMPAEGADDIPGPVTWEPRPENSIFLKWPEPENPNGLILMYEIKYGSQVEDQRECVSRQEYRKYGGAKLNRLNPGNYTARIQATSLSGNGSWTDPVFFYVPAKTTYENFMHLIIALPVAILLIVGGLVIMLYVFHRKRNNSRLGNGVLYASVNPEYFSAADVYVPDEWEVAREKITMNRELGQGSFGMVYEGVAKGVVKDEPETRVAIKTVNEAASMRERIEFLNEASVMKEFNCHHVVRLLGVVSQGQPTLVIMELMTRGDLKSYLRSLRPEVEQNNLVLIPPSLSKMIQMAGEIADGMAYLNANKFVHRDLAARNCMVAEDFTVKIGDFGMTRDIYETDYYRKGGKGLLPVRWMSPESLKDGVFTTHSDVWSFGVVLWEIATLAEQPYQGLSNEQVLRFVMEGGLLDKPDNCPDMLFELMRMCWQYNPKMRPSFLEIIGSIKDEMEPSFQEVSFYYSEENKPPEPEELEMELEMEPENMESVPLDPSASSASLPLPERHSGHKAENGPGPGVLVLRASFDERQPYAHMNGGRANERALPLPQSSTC

| Binder | EC50 [1] | EC50 [2] | EC50 (read off the curve) [4] | also measured |
| --- | --- | --- | --- | --- |
| B1 | 0.011 nM | 0.447 nM | – | – |
| B2 | – | – | ~0.06 nM | binding result [3]: binds; inhibition of IGF-1 and IGF-2 mediated IGF-1R receptor phosphorylation (EC50) [5]: < 1 nM; binding result [6]: binds |
| B3 | – | – | ~0.06 nM | Kd [7]: 0.11 nM; koff [7]: 0.00011 s⁻¹; kon [7]: 1e+06 M⁻¹ s⁻¹; binding result [8]: no binding; percent competition (relative to self-competition) [9]: 90 to 100%; percent competition (relative to self-competition) [10]: 50 to 70% |
| B4 | – | – | ~0.2 nM | – |
| B5 | – | – | – | EC50 [11]: 25 nM; binding result [12]: no binding (tested: about 5000 nM) |
| B6 | 0.016 nM | 0.391 nM | – | – |
| B7 | 0.023 nM | 1.1 nM | – | – |
| B8 | 0.075 nM | 2.06 nM | – | – |
